Experimental data: patent US20250009896

System: T1, Free DX600 peptide
T1 sequence: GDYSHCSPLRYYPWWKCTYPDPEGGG

Recombinant human angiotensin-converting enzyme 2 (ACE2) protein, carrier-free (R&D Systems)
initial velocity of ACE2 cleavage of fluorogenic substrate: there is no appreciable difference in the initial velocity of ACE2 cleavage in the presence of Ligand in comparison to the free DX600 peptide alone
